Laboratory results taken from patent US9675789B2, “Embeddable micro-needle patch for transdermal drug delivery and method of manufacturing the same” (NATIONAL CHENG KUNG UNIVERSITY, priority 2012, dated 2017).

Test system: IgG antibodies induced by ovalbumin
Experiment: immunity test: IgG antibodies induced by ovalbumin in blood serum, ELISA 450 nm absorbance
Assay type: in vivo, sprague dawley (SD) rats
Settings: SD rats, 1 mg ovalbumin at zero and fourteenth day, seventh day
Method: In another aspect of the embodiment, sprague dawley (SD) rats having four to six weeks of age are divided into three groups. Immune response is induced at zero day and fourteenth days by respectively encapsulating 1 mg of ovalbumin in the embeddable micro-needle patch for transdermal drug delivery, injecting saline in muscles, and injecting 1 mg of ovalbumin solution in muscles so as to produce correspondingly IgG antibodies, and blood is drawn from venous sinus under collarbones of the rats at zero day, seventh day, fourteenth day and twenty-first day. The drawn blood is detected by ELISA (enzyme-linked immunosorbent assay) to obtain 450 nm absorbance such that the contents of IgG antibodies antibody induced by ovalbumin in blood serum are determined.

B1: ovalbumin (protein, UniProt P01012 2-386, looked up)
Ovalbumin: GSIGAASMEFCFDVFKELKVHHANENIFYCPIAIMSALAMVYLGAKDSTRTQINKVVRFDKLPGFGDSIEAQCGTSVNVHSSLRDILNQITKPNDVYSFSLASRLYAEERYPILPEYLQCVKELYRGGLEPINFQTAADQARELINSWVESQTNGIIRNVLQPSSVDSQTAMVLVNAIVFKGLWEKAFKDEDTQAMPFRVTEQESKPVQMMYQIGLFRVASMASEKMKILELPFASGTMSMLVLLPDEVSGLEQLESIINFEKLTEWTSSNVMEERKIKVYLPRMKMEEKYNLTSVLMAMGITDVFSSSANLSGISSAESLKISQAVHAAHAEINEAGREVVGSAEAGVDAASVSEEFRADHPFLFCIKHIATNAVLFFGRCVSP
notes: 1 mg of ovalbumin solution injected in muscles, conventional muscle injection comparison group
- expression of induced IgG antibodies in blood serum compared with saline control group: can be discovered
